Data on two molecules can be found in patent US20220267469A1 (LIPUM, published 2022).

Assay [1] concerns the target T1, Mouse BSSL, recombinant (mouse, UniProt Q64285 21-599).
T1 construct: Bought (R&D Systems, Cat. no 5658-CE); also called mBSSL; murine BSSL
T1 sequence: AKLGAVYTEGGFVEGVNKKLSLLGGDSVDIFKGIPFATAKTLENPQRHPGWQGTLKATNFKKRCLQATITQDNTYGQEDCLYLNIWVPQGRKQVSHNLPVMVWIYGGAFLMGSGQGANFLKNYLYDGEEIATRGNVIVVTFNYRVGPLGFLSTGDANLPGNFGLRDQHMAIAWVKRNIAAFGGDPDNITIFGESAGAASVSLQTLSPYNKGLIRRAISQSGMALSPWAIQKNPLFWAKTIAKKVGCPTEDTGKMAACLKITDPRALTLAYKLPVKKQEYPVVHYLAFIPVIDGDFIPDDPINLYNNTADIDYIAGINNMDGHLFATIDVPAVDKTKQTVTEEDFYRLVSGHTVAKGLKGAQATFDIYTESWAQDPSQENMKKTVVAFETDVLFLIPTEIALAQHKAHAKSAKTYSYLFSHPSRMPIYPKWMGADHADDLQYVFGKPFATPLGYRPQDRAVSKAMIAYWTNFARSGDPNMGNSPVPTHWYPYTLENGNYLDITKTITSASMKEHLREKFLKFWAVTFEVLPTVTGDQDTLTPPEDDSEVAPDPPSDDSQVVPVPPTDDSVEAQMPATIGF
The experiment in a line: HTRF competition. For orientation: Time-resolved FRET reads energy transfer from a long-lived donor to a nearby acceptor.

The target of assay [2] is T2, Human BSSL (bile salt-stimulated lipase), native (human, UniProt P19835 21-753).
T2 construct: Native full-length protein purified from human milk (Astra Hässle AB); also called hBSSL; non-biotinylated human BSSL
T2 sequence: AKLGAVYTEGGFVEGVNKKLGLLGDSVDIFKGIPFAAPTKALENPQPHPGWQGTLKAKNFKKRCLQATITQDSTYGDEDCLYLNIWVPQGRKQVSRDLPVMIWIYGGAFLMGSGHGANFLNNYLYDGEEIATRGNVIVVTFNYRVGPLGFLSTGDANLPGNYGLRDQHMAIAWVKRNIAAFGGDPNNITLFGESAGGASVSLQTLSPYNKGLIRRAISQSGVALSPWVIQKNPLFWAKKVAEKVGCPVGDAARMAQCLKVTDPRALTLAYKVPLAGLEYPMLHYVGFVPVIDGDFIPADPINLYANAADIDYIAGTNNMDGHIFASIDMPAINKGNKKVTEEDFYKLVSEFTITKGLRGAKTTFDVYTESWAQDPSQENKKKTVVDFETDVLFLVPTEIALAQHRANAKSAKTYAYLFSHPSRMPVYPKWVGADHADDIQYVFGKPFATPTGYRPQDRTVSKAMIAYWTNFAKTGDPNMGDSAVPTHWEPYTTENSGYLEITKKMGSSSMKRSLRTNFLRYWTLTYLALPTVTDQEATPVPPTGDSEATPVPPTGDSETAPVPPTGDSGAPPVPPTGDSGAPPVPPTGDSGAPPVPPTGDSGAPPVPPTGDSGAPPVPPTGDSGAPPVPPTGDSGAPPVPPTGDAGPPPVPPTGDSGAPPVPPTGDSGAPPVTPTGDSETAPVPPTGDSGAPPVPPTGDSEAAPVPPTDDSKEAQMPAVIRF
The experiment in a line: SPR kinetic screen, single concentration (estimated).

In assay [3] the target is T2, Human BSSL (bile salt-stimulated …). Put plainly: SPR single cycle kinetics, scFv captured by anti-FLAG M2.
The target is the same in assay [4]. The experiment in a line: ELISA, hBSSL directly coated at 1 µg/ml, detection HRP anti-FLAG M2, A450. In general terms: An ELISA detects its analyte on a solid surface through an enzyme-linked reagent.
For assay [5], the target named is T3, Biotinylated human BSSL (human, UniProt P19835 21-753, Biotinylated on glycosacarides, 30-40 biotin/BSSL).
T3 construct: hBSSL biotinylated in house; also called b-hBSSL; human BSSL-biotin
T3 sequence: T2 sequence
The experiment in a line: flow cytometry displacement assay; 1.0 ug antibody, 1 ug b-hBSSL. The method, boiled down:
(§1)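 Antibody (0.5–3.0 μg per reaction) preincubated with 1 μg biotinylated human BSSL in PBS pH 7.4, 30 min at 4 °C, then with human buffy coat 30 min at 4 °C. After erythrocyte lysis/fixation, bound BSSL on CD14+ monocytes detected by labelled streptavidin via flow cytometry.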

In assay [6] the target is T3, Biotinylated human BSSL. Put plainly: flow cytometry displacement assay; 1.5 ug antibody, 1 ug b-hBSSL. The method, boiled down: as §1
A general note: A flow cytometer gives signals particle by particle.

In assay [7] the target is T3, Biotinylated human BSSL. Put plainly: flow cytometry displacement assay; 0.5 ug antibody, 1 ug b-hBSSL. An outline of the steps:
as §1

The target of assay [8] is T3, Biotinylated human BSSL. The experiment in a line: flow cytometry displacement assay; 2.0 ug antibody, 1 ug b-hBSSL. Here is the method:
The 28 BSSL-specific hIgG4 antibodies and the five reference antibodies at different concentrations (ranging from 0.5 μg to 3.0 μg per reaction; see Table 10) were added to b-hBSSL (1 μg per reaction, see Table 2) in round-bottom polystyrene tubes, lx PBS (pH 7.4) was added to a final volume of 20 μl and the antibody/b-hBSSL mixtures were incubated for 30 min. at +4° C. to facilitate binding of antibodies to BSSL. Buffy coat (50 μl) was then added to each antibody/b-hBSSL mixture and incubation continued for another 30 min at +4° C. Thereafter, 2 ml of FACS lysing solution (BD Biosciences) was added and the cells were incubated for 10 min at room temperature in order to lyse erythrocytes and fix the white blood cells. The cells were then centrifuged for 5 min. at 200×g, the resulting pellets were washed by adding 2 ml of FACS buffer (1×PBS supplemented with 1% FCS and 0.1% NaN3) and centrifuged again. Finally, the supernatants were discarded and the cells were resuspended in the last drop of liquid, approximately 50 μl.
5 μl of BV421-labelled anti-human CD14 (BD Biosciences) and 5 μl of BB515-labelled streptavidin (BD Biosciences) was added to each tube and incubated for 30 min, at +4° C., protected from light. Thereafter, cells were washed twice with FACS buffer, resuspended in 500 μl FACS buffer, and run on BD LSRII flow cytometer (BD Biosciences). Finally, data were analyzed using FlowJo software (BD Biosciences).

Assay [9] has as its target T2, Human BSSL (bile salt-stimulated …). The experiment in a line: SPR single cycle kinetics, antibody immobilised, first set of experiments. As to the method:
(§2) SPR measurements were performed with a BIACORE® T200 instrument (GE Healthcare). In order to minimize avidity effects, the antibody was immobilized on the sensor surface and BSSL was injected as the analyte. Immobilization of AS20 mlgG1 was performed by amine coupling to a BIACORE® CM5 (carboxylated dextran surface) sensor chip. The chips were activated by injection of a 1:1 mixture of 0.2 M N-ethyl-N′-[(dimethylamino)peopyl]carbodiimide (EDC) and 0.05 M N-hydroxysucciminimde (NHS) with a contact time of 7 minutes. The antibody was injected for 0.2-2.8 minutes diluted to 14-50 μg/ml in 10 mM acetate-HCl pH 5.0 (set one) or pH 6.0 (set two) to reach final immobilization levels of between 560 and 830 RU. Remaining activated carboxyl groups on the sensor surface were deactivated with an injection of 1 M ethanolamine for 7 minutes.
(§3) In the second set of experiments the running buffer was 25 mM TrisHCl, pH 7.5, 150 mM NaCl. 146 mM H₃PO₄ was used as the standard regeneration solution. The kinetic studies and the non-linear regression analysis were made according to the Single Cycle Kinetics (SCK) method of the BIACORE® T200 instrument and evaluation software. The interaction between mBSSL and AS20 mlgG1 was analyzed with steady state affinity model.

Assay [10] addresses T1, Mouse BSSL, recombinant. The experiment in a line: SPR steady state analysis. Here is the method: as §2, §3
Assay [11] addresses T1, Mouse BSSL, recombinant. The experiment in a line: SPR steady state analysis, antibody immobilised, second set of experiments. As to the method:
as §2, §3

Assay [12] concerns the target T2, Human BSSL (bile salt-stimulated …). Put plainly: SPR single cycle kinetics, antibody immobilised, second set of experiments. Here is the method: as §2, §3
Assay [13] has as its target T3, Biotinylated human BSSL. Put plainly: flow cytometry displacement assay; 3.0 ug antibody, 1 ug b-hBSSL. The method, boiled down:
as §1

B1: AS20 scFv (scFv, V domains shown)
VH: QVQLQQPGAELVKPGASVKMSCKASGYTFTSYNMHWVKQTPGQGLEWIGVIYPGNGDTSYNQKFKGKATLTADKSSSTAYMQLSSLTSEDSAVYYCARDYYGSSPLGYWGQGTTLTVSS
VL: QIVLTQSPAVMSASPGEKVTMTCSASSSISYMHWYQQKPGTSPKRWIYDTSKLASGVPARFSGSGSGTSYSLTISSMEAEDAATYYCHQRSSYPTFGGGTKLEIK
In general, Kd refers to the free concentration of one partner at which half of the binding sites on the other are occupied at equilibrium, for simple one-to-one binding. As usually defined, the koff is a measure of how fast the partners let go of each other. As usually defined, the kon is a measure of how fast the partners come together. The term EC50 (read off the curve) denotes the midpoint of the concentration-response curve. B1: in the assay with Mouse BSSL, recombinant [1], the “fold lower affinity than for human BSSL” value is approximately 100 fold. Also, the Kd in assay [2] is 2 nM. Besides, in assay [3], the dissociation constant (Kd) was found to be 0.6 nM, the koff amounted to 0.00012 s⁻¹ and the kon turned out to be 190000 M⁻¹ s⁻¹. Also, the “EC50 (read off the curve)” value in assay [4] is approximately 0.02 µg/mL.

B2: AS20 mouse IgG1 (antibody, V domains shown)
VH: B1 VH
VL: B1 VL
notes: also called AS20 mlgG1; AS20 mIgG1
On to B2, for which the “percentage reduction of b-hBSSL binding to CD14+ monocytes” value in the assay with Biotinylated human BSSL [5] came out at 66%; with Biotinylated human BSSL [6], 72%; with Biotinylated human BSSL [7] it was 31%; with Biotinylated human BSSL [8], 74%; with Biotinylated human BSSL [13] it was 80%. In addition, the Kd in assay [9] was found to be 2.8 nM; with Mouse BSSL, recombinant [11] it was 155 nM; in assay [12] it was 1.1 nM. Also, the koff in assay [9] came out at 0.00027 s⁻¹; in assay [12], 0.00025 s⁻¹. In addition, the kon in [9] worked out at 97000 M⁻¹ s⁻¹; in assay [12] it was 230000 M⁻¹ s⁻¹. Further, the “fold weaker affinity than for human BSSL” value with Mouse BSSL, recombinant [10] is approximately 100 fold.
